Data reported in patent publication US20130078247A1 (Boehringer Ingelheim, published 2013).
Residue numbers refer to the chain shown, from its start. Each block holds one binder with its values, some of them ahead of it.

How the values were obtained:
human DLL1 = molecular target: T1, human DLL1 (human, UniProt O00548 18-545, limits assumed); experiment: binding ELISA, coated hDLL1
T1 construct: also called hDLL1; rhDLL1
T1 sequence (looked up): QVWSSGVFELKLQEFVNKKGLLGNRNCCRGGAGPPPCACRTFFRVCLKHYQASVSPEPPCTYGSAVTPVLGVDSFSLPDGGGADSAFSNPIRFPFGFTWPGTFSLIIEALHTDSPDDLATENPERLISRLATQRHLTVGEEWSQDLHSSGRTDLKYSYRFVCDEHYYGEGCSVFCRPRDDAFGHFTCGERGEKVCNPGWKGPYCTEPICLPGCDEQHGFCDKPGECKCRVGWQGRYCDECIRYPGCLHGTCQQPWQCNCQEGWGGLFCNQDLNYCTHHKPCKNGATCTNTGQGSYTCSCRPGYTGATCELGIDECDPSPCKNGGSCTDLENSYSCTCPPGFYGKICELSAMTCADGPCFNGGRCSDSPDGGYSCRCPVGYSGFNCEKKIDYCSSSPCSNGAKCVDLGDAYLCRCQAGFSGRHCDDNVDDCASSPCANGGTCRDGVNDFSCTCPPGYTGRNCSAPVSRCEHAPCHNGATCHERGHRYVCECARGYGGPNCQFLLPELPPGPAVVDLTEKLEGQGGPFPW
Procedure: (§1) Absence of binding to homologous ligands human DLL1 and human Jagged-1 is assessed via solid phase binding assay (ELISA). In brief, human DLL1 (Alexis, San Diego, Calif., USA) and human Jagged-1 (Alexis, San Diego, Calif., USA) are coated overnight at 4° C. at 1 μg/mL in a 96-well MaxiSorp plate (Nunc, Wiesbaden, Germany). Wells are blocked with a casein solution (1% in PBS). VHHs are applied as dilution series and binding is detected using a mouse anti-myc (Roche) and an anti-mouse-AP conjugate (Sigma, St. Louis, Mo., USA).

human Jagged-1 = molecular target: T2, human Jagged-1 (human, UniProt P78504 34-1067, limits assumed); experiment: binding ELISA, coated hJagged-1
T2 construct: also called hJag-1; hJAG1
Procedure: as §1

[1] = molecular target: T3, recombinant human DLL4 extracellular domain, C-terminally His-tagged (R&D Systems) (human, UniProt Q9NR61 25-522, biotinylated in the competition assays (sites not given)); experiment: periplasmic extract; hDLL4 ELISA
T3 construct: also called rhDLL4; hDLL4; not shown: C-terminal His tag

recombinant mouse DLL4 = molecular target: T4, recombinant mouse DLL4 (mouse, UniProt Q9JI71 27-532); experiment: ProteOn off-rate screen, periplasmic extract, mDLL4 on chip
T4 construct: extracellular domain; also called rmDLL4; mDLL4; not shown: C-terminal His tag
Procedure: (§2) In a first cycle, amino acid substitutions are introduced randomly in both framework (FW) and complementary determining regions (CDR) using the error-prone PCR method. […] After a polish step, PCR products are inserted via unique restriction sites into a vector designed to facilitate phage display of the VHH library. […] No selections on murine DLL4 are included as (conservation of) cross-reactivity is assessed at the screening level. Individual mutants are produced as recombinant protein using an expression vector derived from pUC119, which contains the LacZ promoter, a resistance gene for ampicillin, a multiple cloning site and an ompA leader sequence (pAX50). E. coli TG1 cells are transformed with the expression vector library and plated on agar plates (LB+Amp+2% glucose). Single colonies are picked from the agar plates and grown in 1 mL 96-deep-well plates. VHH expression is induced by adding IPTG (1 mM). Periplasmic extracts (in a volume of ˜80 uL) are prepared according to standard methods and screened for binding to recombinant human and mouse DII4 in a ProteOn (BioRad, Hercules, Calif., USA) off-rate assay. […] Periplasmic extract of affinity matured clones is diluted 1/10 and injected across the “analyte channels” A1-A6. An average off-rate is calculated of the wild type clones present in the plate and served as a reference to calculate off-rate improvements.

recombinant human DLL4 = molecular target: T5, recombinant human DLL4 (human, UniProt Q9NR61 25-522); experiment: ProteOn off-rate screen, periplasmic extract, hDLL4 on chip
T5 construct: R&D Systems C-terminally His-tagged extracellular domain; also called rhDLL4; hDLL4; not shown: C-terminal His tag
Procedure: as §2

[2] = molecular target: T3, recombinant human DLL4 extracellular …; experiment: periplasmic extract; hDLL4/hNotch1 AlphaScreen
Procedure: To this mixture, the acceptor beads and the streptavidin donor beads are added and further incubated for 1 hour at room temperature. Fluorescence is measured by reading plates on the Envision Multilabel Plate reader (Perkin Elmer, Waltham, Mass., USA) using an excitation wavelength of 680 nm and an emission wavelength of 520 nm.

T4 sequence (Q9JI71 27-532): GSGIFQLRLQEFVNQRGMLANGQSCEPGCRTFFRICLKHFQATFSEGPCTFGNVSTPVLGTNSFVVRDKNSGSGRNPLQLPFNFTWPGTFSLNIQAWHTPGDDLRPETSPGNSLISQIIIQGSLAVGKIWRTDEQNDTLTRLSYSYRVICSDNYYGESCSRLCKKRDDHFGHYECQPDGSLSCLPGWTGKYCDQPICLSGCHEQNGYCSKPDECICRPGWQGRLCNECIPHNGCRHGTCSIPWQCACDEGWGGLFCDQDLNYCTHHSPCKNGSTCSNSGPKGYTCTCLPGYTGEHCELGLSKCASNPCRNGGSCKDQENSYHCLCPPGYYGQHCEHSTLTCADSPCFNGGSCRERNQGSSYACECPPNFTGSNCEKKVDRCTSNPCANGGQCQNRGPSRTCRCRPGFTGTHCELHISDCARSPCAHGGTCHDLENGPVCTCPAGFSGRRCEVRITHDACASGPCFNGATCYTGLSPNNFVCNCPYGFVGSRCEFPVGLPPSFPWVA
T5 sequence (Q9NR61 25-522): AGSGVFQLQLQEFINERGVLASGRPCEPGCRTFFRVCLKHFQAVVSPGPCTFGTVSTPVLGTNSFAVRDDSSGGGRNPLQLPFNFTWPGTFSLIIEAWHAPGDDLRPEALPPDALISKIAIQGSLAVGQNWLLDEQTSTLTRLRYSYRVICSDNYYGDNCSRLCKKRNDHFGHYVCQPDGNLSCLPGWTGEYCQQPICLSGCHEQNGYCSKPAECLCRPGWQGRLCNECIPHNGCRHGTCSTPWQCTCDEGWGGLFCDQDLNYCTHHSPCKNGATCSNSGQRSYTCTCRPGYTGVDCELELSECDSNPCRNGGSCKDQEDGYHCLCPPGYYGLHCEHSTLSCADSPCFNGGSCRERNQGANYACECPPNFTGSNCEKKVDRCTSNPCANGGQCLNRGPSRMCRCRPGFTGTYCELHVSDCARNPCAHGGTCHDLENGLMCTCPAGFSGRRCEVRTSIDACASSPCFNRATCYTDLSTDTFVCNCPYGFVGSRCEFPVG
T3 sequence (Q9NR61 25-522): as above

B2: DLLBII133A09 (VHH)
VHH: EVQLVESGGGLVQPGGSLRLSCAASGFTFGSYDMSWVRRSPGKGPEWVSAINSGGGSTYYADYVKGRFTISRDNAKNTLYLQMNSLKPEDTAVYYCAADRYIWARQGEYWGAYAYDYWGQGTQVTVSS
notes: not shown: C-terminal c-myc tag and (His)6 tag
binding result (human DLL1): no binding
binding result (human Jagged-1): no binding

B3: DLLBII136C07 (VHH)
VHH: B2 VHH with A50S, A114E
notes: as for B2
binding result (human DLL1): no binding
binding result (human Jagged-1): no binding

B4: DLLBII133G05 (VHH)
VHH: B2 VHH with A61T
notes: as for B2
binding result (human DLL1): no binding
binding result (human Jagged-1): no binding

B6: DLLBII6B11 (VHH)
VHH: EVQLVESEGGLVQAGGSLRLSCAASGSTFSSYAMGWYRQAPGKQRELVAVISNGGITNYPNSVKGRFTISRDNAKNTVYLQMNSLKPEDTAVYYCFYSGSYYYPTDVHEYDYWGQGTQVTVSS
notes: also called DLLBII06B11; not shown: C-terminal c-myc and His6 tags
% inhibition [1]: 98%

B10: DLLBII129H05 (VHH)
VHH: EVQLVESGGGLVQAGGSLRLSCAASGRTFSSYAMAWYRLAPGKEREYVAAIRWSGGTAYYADSVQGRFTISRDNAKNTVYLQMNSLKPEDTAVYYCANRAPDTRLGPYLYDYWGQGTQVTVSS
fold (off-rate improvement over DLLBII101G08) (recombinant mouse DLL4): 19 fold
fold (off-rate improvement over DLLBII101G08) (recombinant human DLL4): 24 fold

B15: DLLBII130D06 (VHH)
VHH: B10 VHH with A23S, L39Q, G56E, G106E, Y112H
fold (off-rate improvement over DLLBII101G08) (recombinant mouse DLL4): 16 fold
fold (off-rate improvement over DLLBII101G08) (recombinant human DLL4): 26 fold

B18: DLLBII8A09 (VHH)
VHH: EVQLVESGGGLVQPGGSLRLSCAASGFTLDYYNIGWFRQAPGKEREWVSCINSSDGSTYYADSVKGRFTISRDNAKNTVYLQMNSLKPEDTAVYYCAAPFAYYSNLCGVNGYDYWGQGTQVTVSS
notes: also called DLLBII08A09; not shown: C-terminal c-myc and His6 tags
% inhibition [1]: 96%

B21: DLLBII5B11 (VHH)
VHH: EVQLVESGGGLVQPGGSLRLSCAISGFTLDLHVIGWLRQAPGKEREWVSCISSSDGSTYYADSVKGRFTISRDNAKNTVYLQMNSLKPEDTAVYYCAAPWDSWYCGIGNDYDYWGQGTQVTVSS
notes: also called DLLBII05B11; not shown: C-terminal c-myc and His6 tags
% inhibition [1]: 98%

B23: DLLBII17B03 (VHH)
VHH: EVQLVESGGGLVQPGGSLRLSCAASGFTFENYALGWFRQAPGKEREWVSCISSSDGTTYYADSVKGRFTISRDNVKNTVYLQMNRLKPEDTAIYYCALSLGSSWCAYDYWGQGTQVTVSS
notes: also called DLLBII17B3; not shown: C-terminal c-myc and His6 tags
% inhibition [2]: 77%
% inhibition [1]: 76%

B25: DLLBII28B06 (VHH)
VHH: EVQLVESGGGLVQAGGSLRLSCAASGSTFSTYAMGWYRQDPGNQRELVAAISSDGSTHYADSVKGRFTISRDNAKNTVYLQMNSLKPEDTAVYYCYAPVKVAGLEYDYWGQGTQVTVSS
notes: also called DLLBII28B6; not shown: C-terminal c-myc and His6 tags
% inhibition [2]: 54%
% inhibition [1]: 23%

Other lines, results leading:

binding result (human DLL1): no binding
binding result (human Jagged-1): no binding
B1: DLLBII015 (VHH)
VHH: B2 VHH with F29I
notes: as for B2

% inhibition [1]: 57%
B5: DLLBII8C11 (VHH)
VHH: EVQLVESGGGLVQAGGSLRLSCAASGFTFDDYAIGWFRQAPGKEREGVSCISSHDRTTYYADSVKGRFTISSDNAKNTVYLQMNSLKPEDTAVYYCAADPLVCGYNDPRLADYWGQGTQVTVSS
notes: also called DLLBII08C11; not shown: C-terminal c-myc and His6 tags

fold (off-rate improvement over DLLBII101G08) (recombinant mouse DLL4): 19 fold
fold (off-rate improvement over DLLBII101G08) (recombinant human DLL4): 23 fold
B7: DLLBII129H02 (VHH)
VHH: B10 VHH with L39Q, G106R, L109E

fold (off-rate improvement over DLLBII101G08) (recombinant mouse DLL4): 18 fold
fold (off-rate improvement over DLLBII101G08) (recombinant human DLL4): 24 fold
B8: DLLBII130E03 (VHH)
VHH: B10 VHH with L39Q, G106E, L109E, Y112H

fold (off-rate improvement over DLLBII101G08) (recombinant mouse DLL4): 17 fold
fold (off-rate improvement over DLLBII101G08) (recombinant human DLL4): 22 fold
B9: DLLBII130B04 (VHH)
VHH: B10 VHH with Y37F, L39Q, G106R, Y112H

fold (off-rate improvement over DLLBII101G08) (recombinant mouse DLL4): 17 fold
fold (off-rate improvement over DLLBII101G08) (recombinant human DLL4): 23 fold
B11: DLLBII130B02 (VHH)
VHH: B10 VHH with Y37F, L39Q, N84Y, G106A, Y112H

fold (off-rate improvement over DLLBII101G08) (recombinant mouse DLL4): 27 fold
fold (off-rate improvement over DLLBII101G08) (recombinant human DLL4): 30 fold
B12: DLLBII129H07 (VHH)
VHH: B10 VHH with L39Q, G106E, L109E
notes: as for B2

fold (off-rate improvement over DLLBII101G08) (recombinant mouse DLL4): 27 fold
fold (off-rate improvement over DLLBII101G08) (recombinant human DLL4): 33 fold
B13: DLLBII129H04 (VHH)
VHH: B10 VHH with G8R, Y37F, L39Q, G106E, Y112H

fold (off-rate improvement over DLLBII101G08) (recombinant mouse DLL4): 19 fold
fold (off-rate improvement over DLLBII101G08) (recombinant human DLL4): 27 fold
B14: DLLBII130F06 (VHH)
VHH: B10 VHH with L39Q, G106A, L109E
notes: as for B2

fold (off-rate improvement over DLLBII101G08) (recombinant mouse DLL4): 17 fold
fold (off-rate improvement over DLLBII101G08) (recombinant human DLL4): 24 fold
B16: DLLBII130A05 (VHH)
VHH: B10 VHH with L39Q, Y112H

fold (off-rate improvement over DLLBII101G08) (recombinant mouse DLL4): 20 fold
fold (off-rate improvement over DLLBII101G08) (recombinant human DLL4): 27 fold
B17: DLLBII130B03 (VHH)
VHH: B10 VHH with L39Q, G106A
notes: as for B2

% inhibition [1]: 84%
B19: DLLBII7B05 (VHH)
VHH: EVQLVESGGGLVQAGGSLRLSCAASGFALDYYAVGWFRQAPGKEREGVSCISSRGGSTFYADSVKGRFTTSRNNAKNTVYLQMNSLKPEDTAVYYCAAHPLQNCCGGSAYASPEAVYEYWGQGTQVTVSS
notes: also called DLLBII7B5; DLLBII07B05; not shown: C-terminal c-myc and His6 tags

% inhibition [2]: 98%
% inhibition [1]: 98%
B20: DLLBII19F12 (VHH)
VHH: EVQLVESGGGLVQAGGSLRLSCTASGSTFTSYAMGWYRQAPGKQRELVAAISSDDSTYYADCVKGRFTISRDNAKNTVYLQMNSLKPEDTAVYYCNAPHSDYDEEAPSDFGSWGQGTQVTVSS
notes: not shown: C-terminal c-myc and His6 tags

% inhibition [2]: 95%
% inhibition [1]: 98%
B22: DLLBII19F04 (VHH)
VHH: EVQLVESGGGLVQAEGSLRLSCAASGSTFSTYAMAWYRQAPGKQRELVAGISFDGSTHYAESVKGRFTISRDDAKNTVSLQMNSLKPEDAAVYYCYSVHPSTGFGSWGQGTQVTVSS
notes: also called DLLBII19F4; not shown: C-terminal c-myc and His6 tags

% inhibition [2]: 75%
% inhibition [1]: 86%
B24: DLLBII33C05 (VHH)
VHH: EVQLVESGGGLVQAGGSLRLSCAASGFTLDNYVIGWFRQAPGKEREEVSCISSSGGSTDYLDSVKGRFTISRDNAKNTVYLQMNSLKPEDTAVYYCAADSLPCYYDKMVYDYWGQGTQVTVSS
notes: also called DLLBII33C5; not shown: C-terminal c-myc and His6 tags
